Data published in patent EP2975062B1.

Molecular target: c-mpl receptor (TPO receptor), expressed from c-mpl-pcDNA3.1 in NIH-3T3 cells
Test: cell-based or functional assay

Substance: recombinant human TPO (rhTPO) (from UniProt P40225 22-353) (ligand)
- The relative fluorescence ratio (firefly/Renilla luciferase, c-fos-pGL3 reporter, NIH-3T3 transfected with c-mpl-pcDNA3.1): 1.65
